# Test results published in patent publication US10385327B2, “Enhanced E. coli for the production of fatty acids and method of producing the same” (University of Puerto Rico, priority 2012, dated 2019).
# B1: DH1-DH2-UMA (His-tagged dehydratase tetradomain fragment, I1096-N-Term, of pfaC PUFA synthase from Photobacterium profundum; pfaC SEQ.ID17, GenBank AF409100.1; … (protein)
# chain: IRKPCIWDYEDLVEYAEGDIANVFGPDYAVIDNYSRRVRLPTTDYLLVSRVTKLDATMLEYKPSTMTTEYDIPVDAPYLVDGQIPWAVAVESGQCDLMLISYLGIDFENKGERVYRLLDCTLTFLGDLPRGGDTLRYDISINNFARNGDTLLFFFSYECFVGDKMVLKMDNGCAGFFTDEELSDGKGVIRTEDEIKSRNLAVKQRFNPLLHCQKTQFDYQTLHNLLDANIAGCFGESHISDRHQPSLCFSSDKFMMIEQISHVDPQGGTWGLGLIEGHKQLEADHWYFPCHFKDDSVMAGSLMAEGCGQLLQFFMMYLGMHTQVENGRFQPLENAPQQVRCRGQVLPQSAVLTYRMEVTEIGLSPRPYAKANIDILLDGKVVVDFQNLGVMIKEESECTRYLGSSDFDSASLASSSYVAESAPAQADVITPVEAPISQQASANAPLMAQIPDLNTAPNKGVIPLQHIEAPIVPDYQNRTPDTVPFTPYHMFEFATGDIEKCFGPDFSIYRGMIPPRTPCGDLQLTTRVIEVNGTRGDFKTPSSCIAEYEVPENAWYFDENSHSSLMPYSVLMEISLQPNGFISGYMGTTLGFPGLELFFRNLDGSGKMLRNVDLRGKTIVNDSRLLSTVMMGTNIVQSFSFELSTDGVPFYEGTAVFGYFKGAALKDQLGLDNGQVTYPWHVNNNRTPDVSINLLDKESRYFNAPLSATGEAQPHYQLAGGRLNFIDKVDITSDGGKAGLGYLYAERTIDPSDWFFQFHFHQDPVMPGSLGVEAIIELMQTYALNKDLGAGFRSPKFGQIQSEVKWKYRGQINPLNKQMSLDVHITAIKDEDGKRIIVGDANLSKDGLRIYEVKDIAICIEEA
# Substrate: C/C=C/C(=O)SCCNC(=O)CCNC(=O)[C@H](O)C(C)(C)COP(=O)(O)OP(=O)(O)OC[C@H]1O[C@@H](n2cnc3c(N)ncnc32)[C@H](O)[C@@H]1OP(=O)(O)O
# Test: Kinetic assay of dehydratase activity: hydration of crotonyl-CoA monitored at 235 nm, fit to Michaelis-Menten equation
# Assay type: biochemical, Photobacterium profundum
# Conditions: other: crotonyl-CoA, hydration reaction, substrate 0-600 μM, 25 mM Tris, 150 mM NaCl, 10% glycerol, pH 8.0
# Method: For the cloning of fragments into pET200TOPO SEQ.ID15, the amplified DNA was gel purified using a Gel Extraction Kit and incubated with pET200TOPO. The resulting clones were selected in LB-agar containing kanamycin (100 μg/mL). All resistant clones were introduced into E. coli strain SEQ.ID16 BL21-DE3-Codon Plus-RIL and grown in liquid LB at 37° C. until the OD600=0.4 at which time the temperature was decreased to 22° C.° until the OD600=0.6 at which time protein expression was induced with 1 mM IPTG. […]
# Dehydratase activity was measured in a hydration assay by using Crotonyl-CoA and Crotonyl-NAC as substrates. […] The values for the absorbance slope (given in mAU/min) were converted to units of μmole of product per minute by using the following equation: μmole of product/min=[Slope/ε×b]×Voltotal (Eq1)
# in which the slope is given by the instrument in units of milliabsorbance (mAU) per minute, b is the path length measured to be 0.89 cm for a Voltotal=200 μl in our 96-well plates. The ε is the molar extinction coefficient resulting from the loss of a double bond as defined by the difference in absorbance between crotonyl-CoA and β-hydroxybutyryl-CoA at a particular wavelength. The extinction coefficient was calculated to be ε=969.9 M^−1 cm^−1 for the reaction monitored at 260 nm and ε=790.7 M^−1 cm^−1 for the reaction monitored at 235 nm. […]
protein,measurement,value
B1,Km,156 µM
same,Vmax,0.0001 μmol product/min
